{"source": "patent US20260167728A1", "about": "(published 2026)", "binders": {"B1": {"name": "AC3797 (CD3.293) (scFv, V domains shown)", "VH": "EVQLVESGGGIVQPGGSLRLSCAASGFTFSTYAMNWVRQAPGKGLEWVGRIRTKRNNYATYYADSVKGRFTISRDDSKNTVYLQMNSLKTEDTAVYYCVRHENFGNSYVSWFAHWGQGTLVTVSS", "VL": "ELVVTQEPSLTVSPGGTVTLTCRSSNGAVTSSNYANWVQQKPGQAPRGLIGGTNKRAPGTPARFSGSALGGKAALTLSGVQPEDEAVYYCALWYPNLWVFGGGTKLTVL", "notes": "Pool 3 format (remarks)"}, "B2": {"name": "AC3860 (CD3.356) (scFv, V domains shown)", "VH": "B1 VH with R55T, N57D, V81A", "VL": "B1 VL", "notes": "Pool 3 format (remarks)"}, "B3": {"name": "AC3813 (CD3.309) (scFv, V domains shown)", "VH": "B1 VH with N57D, V81A", "VL": "B1 VL with A68L, G70E", "notes": "Pool 3 format (remarks)"}, "B4": {"name": "AC3802 (CD3.298) (scFv, V domains shown)", "VH": "B1 VH", "VL": "B1 VL with A68L, L69D", "notes": "Pool 3 format (remarks)"}, "B5": {"name": "AC3805 (CD3.301) (scFv, V domains shown)", "VH": "B1 VH with N57D, V81A", "VL": "B1 VL with A68L", "notes": "Pool 3 format (remarks)"}, "B6": {"name": "AC3850 (CD3.346) (scFv, V domains shown)", "VH": "B1 VH with R55T", "VL": "B1 VL with A68L", "notes": "Pool 3 format (remarks)"}, "B7": {"name": "AC3811 (CD3.307) (scFv, V domains shown)", "VH": "B1 VH with N57D, V81A", "VL": "B1 VL with A68L, L69D", "notes": "Pool 3 format (remarks)"}, "B8": {"name": "AC3881 (CD3.377) (scFv, V domains shown)", "VH": "B1 VH with Y61T", "VL": "B1 VL with A68L", "notes": "Pool 3 format (remarks)"}, "B9": {"name": "AC3798 (CD3.294) (scFv, V domains shown)", "VH": "B1 VH", "VL": "B1 VL with A68G", "notes": "Pool 3 format (remarks)"}, "B10": {"name": "AC3801 (CD3.297) (scFv, V domains shown)", "VH": "B1 VH", "VL": "B1 VL with A68L, L69G", "notes": "Pool 3 format (remarks)"}, "B11": {"name": "AC3800 (CD3.296) (scFv, V domains shown)", "VH": "B1 VH", "VL": "B1 VL with A68L, L69E", "notes": "Pool 3 format (remarks)"}, "B12": {"name": "AC3809 (CD3.305) (scFv, V domains shown)", "VH": "B1 VH with N57D, V81A", "VL": "B1 VL with A68L, L69E", "notes": "Pool 3 format (remarks)"}, "B13": {"name": "AMX-525 (1x-C) (bispecific antibody)", "chain": "GTSESATPESDIQMTQSPSSLSASVGDRVTITCQASQDISNYLNWYQQKPGKAPKLLIYDASNLETGVPSRFSGSGSGTDFTFTISSLQPEDIATYYCQHFDHLPLAFGQGTKVEIKSESATPESGPGTSPGATPESGPGTSESATPQVQLQESGPGLVKPSETLSLTCTVSGGSVSSGDYYWTWIRQPPGKGLEWIGHIYYSGNTNYNPSLKSRVTISVDTSKNQFSLKLSSVTAADTAVYYCARDRVTGAFDIWGQGTLVTVSSGGGGSELVVTQEPSLTVSPGGTVTLTCRSSNGAVTSSNYANWVQQKPGQAPRGLIGGTNKRAPGTPARFSGSLLEGKAALTLSGVQPEDEAVYYCALWYPNLWVFGGGTKLTVLSESATPESGPGTSPGATPESGPGTSESATPEVQLVESGGGIVQPGGSLRLSCAASGFTFSTYAMNWVRQAPGKGLEWVGRIRTKRNDYATYYADSVKGRFTISRDDSKNTLYLQMNSLKTEDTAVYYCVRHENFGNSYVSWFAHWGQGTLVTVSSGTATPESGPGEAGRSASHTPAGLTGPATPESGPGTSESATPESGPGSPAGSPTSTEEGTSESATPESGPGSEPATSGSETPGTSESATPESGPGTSTEPSEGSAPGTSTEPSEGSAPGTSTEPSEGSAPGTSTEPSEGSAPGTSTEPSEGSAPGTSTEPSEGSAPGSPAGSPTSTEEGTSTEPSEGSAPGTSESATPESGPGSEPATSGSETPGTSESATPESGPGSEPATSGSETPGTSESATPESGPGTSTEPSEGSAPGTSESATPESGPGSPAGSPTSTEEGSPAGSPTSTEEGSPAGSPTSTEEGTSESATPESGPGTSTEPSEGSAPGTSESATPESGPGSEPATSGSETPGTSESATPESGPGSEPATSGSETPGTSESATPESGPGTSTEPSEGSAPGSPAGSPTSTEEGTSESATPESGPGSEPATSGSETPGTSESATPESGPGSPAGSPTSTEEGSPAGSPTSTEEGTSTEPSEGSAPGTSESATPESGPGTSESATPESGPGTSPSATPESGPGSEPATSGSETPGSEPATSGSETPGSPAGSPTSTEEGTSTEPSEGSAPGTSTEPSEGSAPGSEPATSGSETPGTSESAGEPEA"}, "B14": {"name": "AMX-525 (1x-N) (bispecific antibody)", "chain": "ASSATPESGPGTSTEPSEGSAPGTSESATPESGPGSGPGTSESATPGTSESATPESGPGSEPATSGSETPGTSESATPESGPGTSTEPSEGSAPGSPAGSPTSTEEGTSESATPESGPGSEPATSGSETPGTSESATPESGPGSPAGSPTSTEEGSPAGSPTSTEEGTSTEPSEGSAPGTSESATPESGPGTSESATPESGPGTSESATPESGPGSEPATSGSETPGSEPATSGSETPGSPAGSPTSTEEGTSTEPSEGSAPGTSTEPSEGSAPGSEPATSGSETPGTSESATPEAGRSASHTPAGLTGPGTSESATPESDIQMTQSPSSLSASVGDRVTITCQASQDISNYLNWYQQKPGKAPKLLIYDASNLETGVPSRFSGSGSGTDFTFTISSLQPEDIATYYCQHFDHLPLAFGQGTKVEIKSESATPESGPGTSPGATPESGPGTSESATPQVQLQESGPGLVKPSETLSLTCTVSGGSVSSGDYYWTWIRQPPGKGLEWIGHIYYSGNTNYNPSLKSRVTISVDTSKNQFSLKLSSVTAADTAVYYCARDRVTGAFDIWGQGTLVTVSSGGGGSELVVTQEPSLTVSPGGTVTLTCRSSNGAVTSSNYANWVQQKPGQAPRGLIGGTNKRAPGTPARFSGSLLEGKAALTLSGVQPEDEAVYYCALWYPNLWVFGGGTKLTVLSESATPESGPGTSPGATPESGPGTSESATPEVQLVESGGGIVQPGGSLRLSCAASGFTFSTYAMNWVRQAPGKGLEWVGRIRTKRNDYATYYADSVKGRFTISRDDSKNTLYLQMNSLKTEDTAVYYCVRHENFGNSYVSWFAHWGQGTLVTVSSGTATPESGPG", "notes": "Singly masked metabolite; that the N-terminal mask is the one kept is read from the label only; not shown: remnant of cleaved RSR-3213"}, "B15": {"name": "AC3886 (CD3.382) (scFv, V domains shown)", "VH": "B1 VH with S107A", "VL": "B1 VL with A68L", "notes": "Pool 3 format (remarks)"}, "B16": {"name": "AC3885 (CD3.381) (scFv, V domains shown)", "VH": "B1 VH with N106A", "VL": "B1 VL with A68L", "notes": "Pool 3 format (remarks)"}, "B17": {"name": "AC1955 (EGFR.2/CD3.9 paTCE) (bispecific antibody)", "VL": "DIQMTQSPSSLSASVGDRVTITCQASQDISNYLNWYQQKPGKAPKLLIYDASNLETGVPSRFSGSGSGTDFTFTISSLQPEDIATYFCQHFDHLPLAFGGGTKVEIK", "VH": "QVQLQESGPGLVKPSETLSLTCTVSGGSVSSGDYYWTWIRQSPGKGLEWIGHIYYSGNTNYNPSLKSRLTISIDTSKTQFSLKLSSVTAADTAIYYCVRDRVTGAFDIWGQGTMVTVSS", "scFv": "ELVVTQEPSLTVSPGGTVTLTCRSSTGAVTTSNYANWVQQKPGQAPRGLIGGTNKRAPGTPARFSGSLLGGKAALTLSGVQPEDEAEYYCALWYSNLWVFGGGTKLTVLGATPPETGAETESPGETTGGSAESEPPGEGEVQLLESGGGLVQPGGSLKLSCAASGFTFNTYAMNWVRQAPGKGLEWVARIRSKYNNYATYYADSVKDRFTISRDDSKNTAYLQMNNLKTEDTAVYYCVRHGNFGNSYVSWFAYWGQGTLVTVSS", "notes": "One polypeptide; also called EGFR-XPAT gen1; pJB0169"}}, "note": "Where a chain is given by its changes, count along the chain named."}
{"target": "T1, huCD3e-mFc (human, UniProt P07766 23-126)", "T1 construct": "not shown: mFc, not described", "T1 sequence (P07766 23-126)": "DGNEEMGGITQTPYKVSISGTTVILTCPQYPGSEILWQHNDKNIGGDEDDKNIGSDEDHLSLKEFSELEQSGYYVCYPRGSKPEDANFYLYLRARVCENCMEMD", "experiment": "Pool 3 screen", "units": {"Kd": "nM"}}
{"binder": "B1", "Kd": 3.8}
{"binder": "B2", "Kd": 29.4}
{"binder": "B3", "Kd": 5.82}
{"binder": "B4", "Kd": 4.07}
{"binder": "B5", "Kd": 5.53}
{"binder": "B6", "Kd": 9.83}
{"binder": "B7", "Kd": 6.35}
{"binder": "B8", "Kd": 10.7}
{"binder": "B9", "Kd": 3.05}
{"binder": "B10", "Kd": 3.92}
{"binder": "B11", "Kd": 4.74}
{"binder": "B12", "Kd": 6.28}
{"target": "T2, human EGFR (human, UniProt P00533 25-645, limits assumed)", "T2 construct": "on HT-29 cells in the cytotoxicity assay; also called epidermal growth factor receptor", "experiment": "SPR Biacore 37 C", "units": {"Kd": "nM", "koff": "s⁻¹", "kon": "M⁻¹ s⁻¹"}}
{"binder": "B13", "Kd": 0.184, "koff": 0.00036, "kon": "2e+06"}
{"target": "T3, cynomolgus monkey EGFR (cynomolgus monkey, UniProt A0A2K5WK39 25-645)", "T3 construct": "also called Cyno EGFR", "experiment": "SPR Biacore 37 C", "units": {"Kd": "nM", "koff": "s⁻¹", "kon": "M⁻¹ s⁻¹"}}
{"binder": "B13", "Kd": 0.238, "koff": 0.00051, "kon": "2.12e+06"}
{"binder": "B14", "Kd": 0.25}
{"target": "human CD3 (human, UniProt P07766 23-126)", "sequence (P07766 23-126 limits assumed)": "as the sequence (P07766 23-126) above", "experiment": "SPR Biacore 37 C", "units": {"Kd": "nM"}}
{"binder": "B14", "Kd": 36}
{"target": "T4, cynomolgus monkey CD3 (cynomolgus monkey, UniProt Q95LI5 22-117)", "T4 construct": "also called Cyno CD3", "T4 sequence": "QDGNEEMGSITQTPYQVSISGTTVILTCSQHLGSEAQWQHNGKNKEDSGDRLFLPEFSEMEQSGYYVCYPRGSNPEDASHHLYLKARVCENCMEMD", "experiment": "SPR Biacore 37 C", "units": {"Kd": "nM"}}
{"binder": "B14", "Kd": 47}
{"target": "T1, huCD3e-mFc", "experiment": "Pool 3 screen, R2", "units": {"Kd": "nM"}}
{"binder": "B1", "Kd": 3.72}
{"binder": "B4", "Kd": 8}
{"binder": "B15", "Kd": 21.2}
{"binder": "B6", "Kd": 10.8}
{"binder": "B9", "Kd": 5.75}
{"binder": "B10", "Kd": 21.2}
{"binder": "B11", "Kd": 17}
{"target": "T1, huCD3e-mFc", "experiment": "Pool 3 screen, R3", "units": {"Kd": "nM"}}
{"binder": "B2", "Kd": 19.7}
{"binder": "B3", "Kd": 5.4}
{"binder": "B5", "Kd": 4.4}
{"binder": "B7", "Kd": 4.8}
{"binder": "B16", "Kd": 4.2}
{"binder": "B8", "Kd": 10.4}
{"binder": "B12", "Kd": 4.6}
{"target": "T2, human EGFR", "experiment": "BLI, room temperature", "procedure": "Each construct was expressed in small-scale and purified. Thermal stability was determined by Differential Scanning Fluorimetry. Melting temperature (Tₘ) determined by Differential Scanning Fluorimetry experiments described herein were performed either in duplicate or triplicate using GloMelt™ dye and QuantStudio5™. GloMelt™ dye undergoes fluorescence enhancement upon binding to hydrophobic regions of denatured proteins. Therefore, the dye can be used to detect protein unfolding or measure thermal stability. GloMelt™ dye is optimized for detection in the SYBR® Green channel of qPCR instruments. The Differential Scanning Fluorimetry experiments were performed in 96-well plates with 10 μg protein/reaction (equal to 0.5 mg/mL final protein concentration), reaction buffer, and GloMelt™ 10× dye according to manufacturer's instructions. Fluorescence of 96-well plates was read and melt curve plots were generated in the QuantStudio5™ qPCR system. Binding affinity was analyzed with bio-layer interferometry at room temperature with human EGFR as the antigen.", "units": {"Kd": "nM"}}
{"binder": "B17", "Kd": 0.72}
